Measured values: patent US12497460B2, “Anti-MSR1 antibodies and methods of use thereof” (REGENERON PHARMACEUTICALS, INC., priority 2018, dated 2025)

Molecular target: T1, RAW264.7 cells (MSR1 positive) (Mus musculus, UniProt P30204)
T1 construct: using MSR1 positive RAW264.7 cells (ATCC, Catalog #TIB-71); host or cells: RAW264.7
T1 sequence (P30204 1-458): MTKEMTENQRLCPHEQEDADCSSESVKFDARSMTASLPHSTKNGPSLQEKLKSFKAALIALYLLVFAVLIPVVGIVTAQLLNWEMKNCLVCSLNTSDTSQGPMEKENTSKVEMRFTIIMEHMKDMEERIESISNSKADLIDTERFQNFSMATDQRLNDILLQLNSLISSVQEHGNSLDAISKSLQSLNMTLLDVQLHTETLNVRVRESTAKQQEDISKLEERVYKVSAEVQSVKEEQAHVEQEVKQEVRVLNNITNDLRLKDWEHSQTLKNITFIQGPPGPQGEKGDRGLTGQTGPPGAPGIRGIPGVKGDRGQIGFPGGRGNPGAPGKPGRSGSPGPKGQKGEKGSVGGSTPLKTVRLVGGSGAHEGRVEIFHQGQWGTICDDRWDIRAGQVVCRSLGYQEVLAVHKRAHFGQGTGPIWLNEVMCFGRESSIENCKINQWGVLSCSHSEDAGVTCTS
Assay: Flow cytometry binding to cell surface-expressed mouse MSR1
Assay type: cell-based
Details: 10 μg/mL antibody
Method: To block binding to Fc receptors, RAW264.7 cells were incubated for 30 minutes at 4° C. with 500 μg/mL mouse IgG (Jackson ImmunoResearch, Cat #015-000-003) diluted in staining buffer, while B16F10.9 cells remained in staining buffer. Following Fc receptor blocking, 10 μg/mL of anti-MSR1 antibodies or an isotype control antibody were added to the cells and were subsequently incubated for 30 minutes on ice. […] The signal to noise (S/N) was determined by calculating the ratio of the anti-MSR1 antibodies or the control antibodies MFI to the unstained sample MFI (Table 11).

B1: H1H21227N-N297Q: "modified versions of 21227N (H1H21227N-N297Q and H1H21227N-N297D)"; anti-MSR1 antibody "with a N297Q single point mutation" (antibody, V domains shown)
VH: QVQLVQSGAEVKKPGASVKVSCKVSGYTLTELSIHWVRQVPGKGLEWMGGFDPEEGETIFAQEFRDRVTLTEDTSPDTAYMELSSLKSEDAAVYYCTTPRYCNNGICYDYWGQGTLVTVSS
VL: DIQMTQSPSSLSASVGDRVTITCRASQSISNYLNWYQQKPGKAPKLLIYTASSLQSGVPSRFSGSGSGTDFTLTISSLQTEDFATYYCQQSYSNFPITFGQGTRLEIKR
- RAW264.7 MFI: 12810
- RAW264.7 S/N: 5
- signal to noise (S/N), MFI over unstained sample MFI: 5
